Results reported in patent US20220010003A1 (Boehringer Ingelheim, published 2022).

T1: recombinant human periostin (human, UniProt Q15063 22-836)
T1 sequence: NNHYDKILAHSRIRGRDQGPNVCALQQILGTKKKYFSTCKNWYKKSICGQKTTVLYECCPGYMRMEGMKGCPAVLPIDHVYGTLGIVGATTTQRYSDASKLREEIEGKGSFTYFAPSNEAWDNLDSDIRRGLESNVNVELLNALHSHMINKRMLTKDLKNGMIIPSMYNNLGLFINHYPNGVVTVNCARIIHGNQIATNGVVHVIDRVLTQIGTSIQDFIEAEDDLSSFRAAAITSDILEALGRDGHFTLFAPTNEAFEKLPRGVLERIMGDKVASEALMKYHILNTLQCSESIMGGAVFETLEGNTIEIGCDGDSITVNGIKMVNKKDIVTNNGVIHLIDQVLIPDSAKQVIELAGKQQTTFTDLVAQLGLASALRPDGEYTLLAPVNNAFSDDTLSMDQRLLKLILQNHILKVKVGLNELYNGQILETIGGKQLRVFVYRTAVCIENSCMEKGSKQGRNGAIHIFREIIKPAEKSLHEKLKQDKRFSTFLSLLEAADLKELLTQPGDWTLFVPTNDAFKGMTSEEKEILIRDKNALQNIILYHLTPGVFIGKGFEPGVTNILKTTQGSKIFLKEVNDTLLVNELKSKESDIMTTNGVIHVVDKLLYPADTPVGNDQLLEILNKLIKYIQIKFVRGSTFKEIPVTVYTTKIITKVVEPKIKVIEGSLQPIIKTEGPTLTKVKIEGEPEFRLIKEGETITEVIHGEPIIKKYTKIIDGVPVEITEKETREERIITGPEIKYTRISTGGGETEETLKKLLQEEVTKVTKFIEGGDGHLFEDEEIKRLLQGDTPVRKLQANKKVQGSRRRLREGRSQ

T2: recombinant mouse periostin (mouse, UniProt Q62009-2 24-811, limits assumed)
T2 construct: also called MoPOSTN
T2 sequence (looked up): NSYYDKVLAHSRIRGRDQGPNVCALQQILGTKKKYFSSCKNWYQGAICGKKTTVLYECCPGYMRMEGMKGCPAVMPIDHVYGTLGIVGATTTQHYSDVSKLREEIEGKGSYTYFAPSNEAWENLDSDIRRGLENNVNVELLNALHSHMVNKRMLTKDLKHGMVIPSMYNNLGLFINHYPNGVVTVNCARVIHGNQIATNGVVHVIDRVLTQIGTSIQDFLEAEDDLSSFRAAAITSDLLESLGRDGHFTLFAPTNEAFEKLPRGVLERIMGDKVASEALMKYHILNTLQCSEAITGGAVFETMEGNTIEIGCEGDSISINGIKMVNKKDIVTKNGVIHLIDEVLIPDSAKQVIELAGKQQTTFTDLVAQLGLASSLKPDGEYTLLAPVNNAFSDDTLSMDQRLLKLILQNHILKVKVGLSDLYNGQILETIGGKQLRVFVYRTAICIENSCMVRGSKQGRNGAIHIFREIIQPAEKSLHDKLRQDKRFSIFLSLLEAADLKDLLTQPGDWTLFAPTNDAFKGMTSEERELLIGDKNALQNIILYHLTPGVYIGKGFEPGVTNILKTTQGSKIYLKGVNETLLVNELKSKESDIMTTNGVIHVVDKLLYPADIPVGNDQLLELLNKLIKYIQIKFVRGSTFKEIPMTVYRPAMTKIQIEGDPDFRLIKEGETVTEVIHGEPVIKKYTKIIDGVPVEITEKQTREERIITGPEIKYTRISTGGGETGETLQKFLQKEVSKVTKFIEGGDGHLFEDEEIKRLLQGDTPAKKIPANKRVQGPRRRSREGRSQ


What was measured:
[1] = target: T1, recombinant human periostin; experiment: cell-based or functional assay
[2] = target: T2, recombinant mouse periostin; experiment: ELISA, periostin coated, anti-human Fc-HRP; the clone is named in Table 2
[3] = target: T1, recombinant human periostin; experiment: as above
[4] = target: T2, recombinant mouse periostin; experiment: cell-based or functional assay
[5] = target: T1, recombinant human periostin; experiment: cell-based or functional assay; remark: listed apart in the source
[6] = target: T2, recombinant mouse periostin; experiment: binding ELISA, periostin coated
[7] = target: T1, recombinant human periostin; experiment: binding ELISA, periostin coated

Row | Binder | IC50 (nM), cell attachment assay [1] [nM] | EC50 [2] [nM] | EC50 [3] [nM] | CAA IC50 [4] [nM] | CAA IC50 [5] [nM] | EC50 [6] [nM] | EC50 [7] [nM]
1 | NB0627 (antibody, human IgG1, V domains shown) VH: QVQLVQSGAEVKKPGASVKVSCKASGYTFTSYGISWVRQAPGQGLEWMGWISAYNGNTNYAQKLQGRVTMTTDTSTSTAYMELRSLRSDDTAVYYCARDMLVVPFDYWGQGTLVTVSS VL: QSVLTQSSSASGTPGQTVTVSCSGSSSDIGSNRVNWYQQLPGTAPKLLIYSNDQRPSGVPDRFSGSKSGTSASLAISGLQSADEADYYCAAWDDSLSTYVFGSGTKVTVL | 22.4 | < 1 | < 1 | – | – | – | –
2 | NB1010 (N55Q) (antibody, V domains shown, Variant of NB0828 (IgG4PAA parent); the isotype of the variant is not restated) VH: QVQLVQSGAEVKKPGASVKVSCKASGYTFTSYGISWVRQAPGQGLEWMGWISAYQGNTNYAQKLQGRVTMTTDTSTSTAYMELRSLRSDDTAVYYCARDMLVVPFDYWGQGTLVTVSS VL: QSVLTQSSSASGTPGQTVTVSCSGSSSDIGSNRVNWYQQLPGTAPKLLIYSNDQRPSGVPDRFSGSKSGTSASLAISGLQSADEADYYCAAWDDSLSTYVFGSGTKVTVL | – | – | – | 19.6 | 7.97 | 0.1 | 0.08
3 | NB1003 (N55S) (antibody, V domains shown, Variant of NB0828 (IgG4PAA parent); the isotype of the variant is not restated) VH: QVQLVQSGAEVKKPGASVKVSCKASGYTFTSYGISWVRQAPGQGLEWMGWISAYSGNTNYAQKLQGRVTMTTDTSTSTAYMELRSLRSDDTAVYYCARDMLVVPFDYWGQGTLVTVSS VL: QSVLTQSSSASGTPGQTVTVSCSGSSSDIGSNRVNWYQQLPGTAPKLLIYSNDQRPSGVPDRFSGSKSGTSASLAISGLQSADEADYYCAAWDDSLSTYVFGSGTKVTVL | – | – | – | 14.9 | 10.8 | 0.08 | 0.08

Continued by falling EC50 [6], values first:

Row | IC50 (nM), cell attachment assay [1] [nM] | EC50 [2] [nM] | EC50 [3] [nM] | CAA IC50 [4] [nM] | CAA IC50 [5] [nM] | EC50 [6] [nM] | EC50 [7] [nM] | Binder
4 | – | – | – | 65.1 | – | 19.3 | 9.47 | NB1014 (N55T_M100V) (antibody, V domains shown, Double mutant of NB0828 (IgG4PAA parent); the isotype of the variant is not restated) VH: QVQLVQSGAEVKKPGASVKVSCKASGYTFTSYGISWVRQAPGQGLEWMGWISAYTGNTNYAQKLQGRVTMTTDTSTSTAYMELRSLRSDDTAVYYCARDVLVVPFDYWGQGTLVTVSS VL: QSVLTQSSSASGTPGQTVTVSCSGSSSDIGSNRVNWYQQLPGTAPKLLIYSNDQRPSGVPDRFSGSKSGTSASLAISGLQSADEADYYCAAWDDSLSTYVFGSGTKVTVL
5 | – | – | – | 42.3 | – | 4.42 | 2.28 | NB1012 (N55S_M100I) (antibody, V domains shown, Double mutant of NB0828 (IgG4PAA parent); the isotype of the variant is not restated) VH: QVQLVQSGAEVKKPGASVKVSCKASGYTFTSYGISWVRQAPGQGLEWMGWISAYSGNTNYAQKLQGRVTMTTDTSTSTAYMELRSLRSDDTAVYYCARDILVVPFDYWGQGTLVTVSS VL: QSVLTQSSSASGTPGQTVTVSCSGSSSDIGSNRVNWYQQLPGTAPKLLIYSNDQRPSGVPDRFSGSKSGTSASLAISGLQSADEADYYCAAWDDSLSTYVFGSGTKVTVL
6 | – | – | – | 20.9 | 13.6 | 0.18 | 0.12 | NB1015 (N55D) (antibody, V domains shown, Variant of NB0828 (IgG4PAA parent); the isotype of the variant is not restated) VH: QVQLVQSGAEVKKPGASVKVSCKASGYTFTSYGISWVRQAPGQGLEWMGWISAYDGNTNYAQKLQGRVTMTTDTSTSTAYMELRSLRSDDTAVYYCARDMLVVPFDYWGQGTLVTVSS VL: QSVLTQSSSASGTPGQTVTVSCSGSSSDIGSNRVNWYQQLPGTAPKLLIYSNDQRPSGVPDRFSGSKSGTSASLAISGLQSADEADYYCAAWDDSLSTYVFGSGTKVTVL
7 | – | – | – | 22.3 | 15 | 0.07 | 0.07 | NB1011 (N55T) (antibody, V domains shown, Variant of NB0828 (IgG4PAA parent); the isotype of the variant is not restated) VH: QVQLVQSGAEVKKPGASVKVSCKASGYTFTSYGISWVRQAPGQGLEWMGWISAYTGNTNYAQKLQGRVTMTTDTSTSTAYMELRSLRSDDTAVYYCARDMLVVPFDYWGQGTLVTVSS VL: QSVLTQSSSASGTPGQTVTVSCSGSSSDIGSNRVNWYQQLPGTAPKLLIYSNDQRPSGVPDRFSGSKSGTSASLAISGLQSADEADYYCAAWDDSLSTYVFGSGTKVTVL
